In doi:10.1101/2023.03.17.533217 (2023):

B1: Aurora A kinase (AurA), residues 122-403, dephosphorylated (domain or fragment)
chain: ESKKRQWALEDFEIGRPLGKGKFGNVYLAREKQSKFILALKVLFKAQLEKAGVEHQLRREVEIQSHLRHPNILRLYGYFHDATRVYLILEYAPLGTVYRELQKLSKFDEQRTATYITELANALSYCHSKRVIHRDIKPENLLLGSAGELKIADFGWSVHAPSSRRTTLCGTLDYLPPEMIEGRMHDEKVDLWSLGVLCYEFLVGKPPFEANTYQETYKRISRVEFTFPDFVTEGARDLISRLLKHNPSQRPMLREVLEHPWITANSSKPSNCQNKESASKQS

Columns and labels:
[1] = target: B1; test: ITC
[2] = target: B1; test: ITC; 150 µM danusertib
[3] = target: B1; test: ITC; 50 µM danusertib
[4] = target: B1; test: ITC; danusertib
Mb3 [5] = test: ITC
Mb3 [6] = test: ITC; danusertib

Binder	Kd [1]	Kd [2]	Kd [3]	Kd [4]	Kd (Mb3 [5])	Kd (Mb3 [6])
activating monobody Mb1 (designed binder) GSVSSVPTKLEVVAATPTSLLISWDAQTYQMYDYVSYYRITYGETGGNSPVQEFTVPGYYSTATISGLKPGVDYTITVYAEGYYSSYSPISINYRT	952 nM	17700 nM	18000 nM			
inhibiting monobody Mb2 (designed binder) GSVSSVPTKLEVVAATPTSLLISWDAPAVTVVHYVITYGETGGNSPVQEFTVPGSKSTATISGLKPGVDYTITVYAIDFYWGSYSPISINYRT	1500 nM			889 nM		
B1					180 nM	69 nM
